The target in assay [1] is recombinant human FAM19A5 protein (His-tagged) (human) (UniProt Q7Z5A7). Kind of assay: ELISA on N'-Term His FAM19A5, fit of the titration; R2 printed 0.9422. Background: An ELISA detects its analyte on a solid surface through an enzyme-linked reagent.
Assay [2] shares this target. The assay is described as follows: ELISA on N'-Term His FAM19A5, fit of the titration (OD 492 nm); R2 printed 0.9422.
The target is the same in assay [3]. The assay is described as follows: ELISA on N'-Term His FAM19A5, fit of the titration; R2 printed 0.9813.
For assay [4] the target is unchanged. Kind of assay: ELISA on N'-Term His FAM19A5, fit of the titration (OD 492 nm); R2 printed 0.9813.
The target is the same in assay [5]. Kind of assay: ELISA on N'-Term His FAM19A5, fit of the titration (OD 492 nm); R2 printed 0.1299.
Assay [6] has the same target. Kind of assay: ELISA on coated FAM19A5, as in Example 6.
For assay [7] the target is unchanged. Kind of assay: ELISA on N'-Term His FAM19A5, fit of the titration (OD 492 nm); R2 printed 0.9303.
Assay [8] has the same target. The assay is described as follows: ELISA, His-FAM19A5 (positive control) coated on the plate, absorbance at 492 nm.
Assay [9] has the same target. Kind of assay: two-site sandwich ELISA; capture antibody 3-2; biotinylated detection antibody 2-13; antigen in ng/mL.
The target is the same in assay [10]. The assay is described as follows: two-site sandwich ELISA; capture antibody 1-65; biotinylated detection antibody 2-13; antigen in ng/mL.
For assay [11] the target is unchanged. Kind of assay: two-site sandwich ELISA; capture antibody 13B4; biotinylated detection antibody 2-13; antigen in ng/mL.
For assay [12] the target is unchanged. Kind of assay: two-site sandwich ELISA; capture antibody P2-A03; biotinylated detection antibody 2-13; antigen in ng/mL.
The target is the same in assay [13]. Kind of assay: two-site sandwich ELISA; capture antibody P2-F11; biotinylated detection antibody 2-13; antigen in ng/mL.
For assay [14] the target is unchanged. Kind of assay: two-site sandwich ELISA; capture antibody 3-2; S/N = O.D. at 10 ng/mL antigen / O.D. at 0 ng/mL; O.D. in column 0 printed 0.38.
The target is the same in assay [15]. The assay is described as follows: two-site sandwich ELISA; capture antibody 1-65; S/N = O.D. at 10 ng/mL antigen / O.D. at 0 ng/mL; O.D. in column 0 printed 0.44.
Assay [16] has the same target. Kind of assay: two-site sandwich ELISA; capture antibody P2-F11; S/N = O.D. at 10 ng/mL antigen / O.D. at 0 ng/mL; O.D. in column 0 printed 0.4.
The target is the same in assay [17]. The assay is described as follows: two-site sandwich ELISA; capture antibody P2-A03; S/N = O.D. at 10 ng/mL antigen / O.D. at 0 ng/mL; O.D. in column 0 printed 0.39.
Assay [18] has the same target. The assay is described as follows: two-site sandwich ELISA; capture antibody 13B4; S/N = O.D. at 10 ng/mL antigen / O.D. at 0 ng/mL; grey cell; cells 10 and 0 under recheck.
Assay [19] has the same target. The assay is described as follows: ELISA on N'-Term His FAM19A5, fit of the titration; R2 printed 0.9303; the text gives about 2.77 nM for 2-13, which on the sheet stands under 13F7.
The target is the same in assay [20]. The assay is described as follows: ELISA on N'-Term His FAM19A5, fit of the titration; R2 printed 0.9105.
The target is the same in assay [21]. Kind of assay: ELISA on N'-Term His FAM19A5, fit of the titration (OD 492 nm); R2 printed 0.9105.
Assay [22] has the same target. The assay is described as follows: ELISA on N'-Term His FAM19A5, fit of the titration; poor fit, R2 printed -0.2016.
For assay [23] the target is unchanged. Kind of assay: ELISA on N'-Term His FAM19A5, fit of the titration (OD 492 nm); R2 printed -0.2016.
The target is the same in assay [24]. Kind of assay: ELISA on N'-Term His FAM19A5, fit of the titration (OD 492 nm); R2 printed 0.2002.

7 molecules from US20200299373A1 can be followed below.

One may read the Kd as the equilibrium constant for the complex coming apart.

B1: P2-C12 (antibody, V domains shown)
VH: QSLEESGGRLVTPGTPLTLTCTVSGFSLSTYAVTWVRQAPGKGLEWIGYINWRGGTSYANWAKGRFTISKTSSTTVDLKMTSPTTEDTATYFCARDASSGAAFGSYGMDPWGPGTLVTVSS
VL: ELDMTQTPSSVSAAVGGTVTIKCQASQSISSYLSWYQQKPGQPPKLLIYEASKLASGVPSRFSGSGYGTEFTLTISDLECADAATYYCQQGYSSTNVWNAFGGGTNVEIKR
For B1, the dissociation constant (Kd) in [1] was determined as 7.64 nM. Besides, the Bmax in assay [2] was 1.73.

B2: P1-A03 (antibody, V domains shown)
VH: QSVEESGGRLVTPGTPLTLTCTVSGFSLSSDYMSWVRQAPGEGLEWIGIIYPSTTTYYASWAKGRFTISKTSSTTVELKMTSLTTEDTATYFCARGSNWSSGMNLWGPGTLVTVSS
VL: ELVMTQTPPSLSASVGETVRIRCLASEDIYSGISWYQQKPEKPPTLLISGASNLESGVPPRFSGSGSGTDYTLTIGGVQAEDAATYYCLGGYSYSSTGLTFGAGTNVEIKR
As to B2, in assay [3], the Kd was 7.5 nM. The Bmax in assay [4] was determined as 2.45.

B3: P1-F02 (antibody, V domains shown)
VH: QSLEESGGRLVTPGTPLTLTCTASGFSLSNYYMGWVRQAPGEGLEWIGIIYASGSTYYASWAKGRFTISKTSTTVDLKMTSLTTEDTATYFCARIDIGVGDYGWAYDRLDLWGQGTLVTVSS
VL: ELDMTQTPPSLSASVGETVRIRCLASEDIYSGISWYQQKPGKPPTLLIYGASNLESGVPPRFSGSGSGTDYTLTIGGVQAEDAATYYCLGGYSYSSITFGAGTNVEIKR
In the case of B3, the Bmax in [5] is 0.172.

B4: anti-FAM19A5 antibody 2-13 (antibody, V domains shown)
VH: AVTLDESGGGLQTPGGALSLVCKASGFTFSSHGMFWVRQTPGKGLEYVAEITNDGSGTNYGSAVKGRATISRDNGQSTVRLQLNNLRAEDTGTYFCARSTYECPGGFSCWGDTGQIDAWGHGTEVIVSS
VL: ALTQPSSVSANPGETVKITCSGGSYSYGWFQQKSPGSALVTVIYWDDERPSDIPSRFSGALSGSTNTLTITGVQADDEAVYFCGTEDISGTAGVFGAGTTLTVL
Regarding B4, the Kd in assay [6] is 2.77 nM; in [19], 1.96 nM. The Bmax in [7] was determined as 2.41. In addition, in [8], the O.D. worked out at 3.6. In addition, the O.D., antigen 100 turned out to be 2.01 in [9]; 2.02 in assay [10]; 1.48 in [11]; 1.88 in assay [12]; 1.94 in assay [13]. Besides, the O.D., antigen column 10 turned out to be 1.97 in assay [9], 1.8 in [10], 1.07 in assay [12] and 1.91 in assay [13]. For the same molecule, the S/N in assay [14] came to 5.1; in [15] it was 4.1; in [16], 4.8; in [17], 2.7; in [18], 1.1.

B5: P2-A01 (antibody, V domains shown)
VH: QEQLVESGGRLVTPGTPLTLSCTASGFFLSGYYMSWVRQAPGKGLEWIGIIYPSGSTDYASWAKGRFTISKTSTTVDLKITTPTTEDTATYFCARVAGYVGYGYETFFDIWGPGTLVTVSL
VL: ELVMTQTPPSLSASVGETVRIRCLASEDIYSGISWYQQKPGKPPTLLIYGASNLESGVPPRFSGSGSGSDYTLTIGGVQAEDAATYYCLGGVTYSSTGTHLTFGAGTNVEIKR
Take B5: in assay [20], the Kd came out at 9.09 nM. Moreover, in [21], the Bmax was 1.19.

B6: P1-A08 (antibody, V domains shown)
VH: QSLEESGGRLVTPGTPLTLTCTASGFSLSTYYMSWVRQAPGKGLEWIGIVYPSGTTYYANWAKGRFTISTASTTVDLMITSPTTEDTATYFCARGDSFGYGLWGPGTLVTVSS
VL: ELVLTQSPSVQVNLGQTVSLTCTADTLSRSYASWYQQKPGQAPVLLIYRDTSRPSGVPDRFSGSSSGNTATLTISGAQAGDEADYYCATSDGSGSNYQYVFGGGTQLTVTR
For the molecule B6, the Kd in assay [22] turned out to be 6.95 nM. The Bmax in [23] was found to be 0.479.

B7: P2-F07 (antibody, V domains shown)
VH: QSLEESGGRLVTPGTPLTLTCTASGFSLSSYYMNWVRQAPGKGLEWIGIIYPSGTTYYAGWAKGRFTISKTSTTVDLKITSPTSEDTATYFCARTVSGYFDIWGPGTLVTVSL
VL: ELDLTQTPPSLSASVGGTVTINCLASEDIYSALAWYQQKPGKPPTLLISGTSNLESGVPPRFSGSGSGTDYTLTIGGVQAEDAATYFCQGYSSYPLTFGAGTNVEIKR
On to B7, for which, in assay [24], the Bmax was 0.134.
